Reference: US20240255507A1 (SYSMEX, published 2024)

B1: CR3022 (antibody, V domains shown)
VH: QMQLVQSGTEVKKPGESLKISCKGSGYGFITYWIGWVRQMPGKGLEWMGIIYPGDSETRYSPSFQGQVTISADKSINTAYLQWSSLKASDTAIYYCAGGSGISTPMDVWGQGTTVTVSS
VL: DIQMTQSPSSLSASVGDRVTITCRASQSIYSALNWYQQKPGKAPKLLIYAASALQSGVPSRFSGSGSGTDFTLTISSLQPEDFATYYCQQTDIHPYTFGQGTKVEIKR
B2: HKU9 wild-type RBD (other)
chain: SYCTPPYSVLQDPPQPVVWRRYMLYDCVFDFTVVVDSLPTHQLQCYGVSPRRLASMCYGSVTLDVMRINETHLNNLFNRVPDTFSLYNYALPDNFYGCLHAFYLNSTAPYAVANRFPIKPGGRQSNSAFIDTVINAAHYSPFSYVYGLAVITLKPAAGSKLVCPVAN
B3: CV30 (antibody, V domains shown)
VH: EVQLVESGGGLIQPGGSLRLSCAASGVIVSSNYMSWVRQAPGKGLEWVSVIYSGGSTYYADSVKGRFTISRDNSKNTLYLQMNSLRAEDTAVYYCARDLDVSGGMDVWGQGTTVTVSS
VL: not shown
B4: BD23 (antibody, V domains shown)
VH: QVQLVQSGSELKKPGASVKVSCKASGYTFTSYAMNWVRQAPGQGLEWMGWINTNTGNPTYAQGFTGRFVFSLDTSVSTAYLQISSLKAEDTAVYYCARPQGGSSWYRDYYYGMDVWGQGTTVTVSS
VL: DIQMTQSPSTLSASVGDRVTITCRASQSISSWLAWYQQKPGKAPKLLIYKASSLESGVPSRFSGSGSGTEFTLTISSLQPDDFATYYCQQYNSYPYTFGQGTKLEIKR
B5: REGN10933 (antibody, V domains shown)
VH: QVQLVESGGGLVKPGGSLRLSCAASGFTFSDYYMSWIRQAPGKGLEWVSYITYSGSTIYYADSVKGRFTISRDNAKSSLYLQMNSLRAEDTAVYYCARDRGTTMVPFDYWGQGTLVTVSS
VL: DIQMTQSPSSLSASVGDRVTITCQASQDITNYLNWYQQKPGKAPKLLIYAASNLETGVPSRFSGSGSGTDFTFTISGLQPEDIATYYCQQYDNLPLTFGGGTKVEIKR
B6: REGN10987 (antibody, V domains shown)
VH: QVQLVESGGGVVQPGRSLRLSCAASGFTFSNYAMYWVRQAPGKGLEWVAVISYDGSNKYYADSVKGRFTISRDNSKNTLYLQMNSLRTEDTAVYYCASGSDYGDYLLVYWGQGTLVTVSS
VL: QSALTQPASVSGSPGQSITISCTGTSSDVGGYNYVSWYQQHPGKAPKLMIYDVSKRPSGVSNRFSGSKSGNTASLTISGLQSEDEADYYCNSLTSISTWVFGGGTKLTVLR

Legend:
GCCDC1 wild-type RBD [1] = target: T1, GCCDC1 wild-type RBD (coronavirus GCCDC1 strain (Nobecovirus …)); experiment: ELISA, antigen coated
Zaria wild-type RBD [2] = target: T2, Zaria wild-type RBD (coronavirus Zaria strain (Hibecovirus …)); experiment: ELISA, antigen coated
Hp wild-type RBD [3] = target: T3, Hp wild-type RBD (coronavirus Hp strain (Hibecovirus …)); experiment: ELISA, antigen coated
HKU9 wild-type RBD [4] = target: B2; experiment: ELISA, antigen coated
GCCDC1 wild-type RBD [5] = target: T1, GCCDC1 wild-type RBD; experiment: ELISA, antigen coated, binder 1 µg/mL, chemiluminescence
Zaria wild-type RBD [6] = target: T2, Zaria wild-type RBD; experiment: as above
Hp wild-type RBD [7] = target: T3, Hp wild-type RBD; experiment: as above
SARS-CoV-2 wild-type RBD = SARS-CoV-2 wild-type RBD (SARS-CoV-2, UniProt P0DTC2 319-541); experiment: as above
HKU9 wild-type RBD [8] = target: B2; experiment: as above
[9] = target: T4, ACE2-hFc (AC2-H 5257, Acrobiosystems) (human, UniProt Q9BYF1 18-740); experiment: ELISA, antigen coated
T4 construct: also called ACE2-Fc
T4 sequence (Q9BYF1 18-740 limits assumed): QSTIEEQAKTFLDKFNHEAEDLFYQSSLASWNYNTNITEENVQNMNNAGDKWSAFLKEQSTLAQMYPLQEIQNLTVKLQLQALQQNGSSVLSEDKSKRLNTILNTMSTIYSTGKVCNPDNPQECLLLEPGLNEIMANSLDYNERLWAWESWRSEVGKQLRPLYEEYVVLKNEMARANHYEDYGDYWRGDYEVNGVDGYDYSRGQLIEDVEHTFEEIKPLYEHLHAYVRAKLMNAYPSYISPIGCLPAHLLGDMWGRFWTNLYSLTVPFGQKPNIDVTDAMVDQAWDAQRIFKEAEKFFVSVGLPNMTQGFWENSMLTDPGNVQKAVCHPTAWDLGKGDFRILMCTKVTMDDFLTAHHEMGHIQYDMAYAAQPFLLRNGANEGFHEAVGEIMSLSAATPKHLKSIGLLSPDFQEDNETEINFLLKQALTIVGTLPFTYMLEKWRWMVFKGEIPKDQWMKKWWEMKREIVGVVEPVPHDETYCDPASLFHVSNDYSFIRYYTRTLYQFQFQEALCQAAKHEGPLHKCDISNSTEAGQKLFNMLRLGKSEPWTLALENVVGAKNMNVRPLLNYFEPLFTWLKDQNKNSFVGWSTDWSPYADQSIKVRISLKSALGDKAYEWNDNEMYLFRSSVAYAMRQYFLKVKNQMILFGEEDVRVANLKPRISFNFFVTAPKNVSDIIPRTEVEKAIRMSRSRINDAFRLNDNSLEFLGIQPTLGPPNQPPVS

Binder | binding result (GCCDC1 wild-type RBD [1]) | binding result (Zaria wild-type RBD [2]) | binding result (Hp wild-type RBD [3]) | binding result (HKU9 wild-type RBD [4]) | signal intensity (GCCDC1 wild-type RBD [5]) | signal intensity (Zaria wild-type RBD [6]) | signal intensity (Hp wild-type RBD [7]) | signal intensity (SARS-CoV-2 wild-type RBD) | signal intensity (HKU9 wild-type RBD [8]) | binding result [9]
B1 | no binding (tested: 1 µg/mL) | no binding (tested: 1 µg/mL) | no binding (tested: 1 µg/mL) | no binding (tested: 1 µg/mL) | 100 | 330 | 100 | 1.07e+06 | 433 | –
B2 | – | – | – | – | – | – | – | – | – | no binding (tested: 1 µg/mL)
B3 | no binding (tested: 1 µg/mL) | no binding (tested: 1 µg/mL) | no binding (tested: 1 µg/mL) | no binding (tested: 1 µg/mL) | 130 | 100 | 150 | 921000 | 583 | –
B4 | – | – | – | no binding (tested: 1 µg/mL) | – | – | – | – | 803 | –
B5 | – | – | – | no binding (tested: 1 µg/mL) | – | – | – | – | 943 | –
B6 | – | – | – | no binding (tested: 1 µg/mL) | – | – | – | – | 1120 | –
